Source: article PMC7986808

T1: RH2, His-TF-RH2 (Medicago truncatula, UniProt A0A072TSA4 1-207)
T1 sequence: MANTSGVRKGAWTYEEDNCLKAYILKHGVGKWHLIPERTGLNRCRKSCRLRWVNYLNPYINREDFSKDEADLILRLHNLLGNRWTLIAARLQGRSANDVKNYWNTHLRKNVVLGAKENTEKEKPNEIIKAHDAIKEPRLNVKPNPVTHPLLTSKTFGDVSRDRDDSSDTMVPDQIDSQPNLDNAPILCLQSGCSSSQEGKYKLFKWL

B1: MtCHS probe (dsDNA)
DNA 1: TCAGACTCACATTAAAACTACAGTCTGTTGAGTTGTGCTATTATATTAAGAGAGACAAT
DNA 2: ATTGTCTCTCTTAATATAATAGCACAACTCAACAGACTGTAGTTTTAATGTGAGTCTGA
B2: MtANS probe (dsDNA)
DNA 1: CTATATATAAGAAGCTAGCTGCATACAACCATTTATTCACGTTTTGTGCTGTGCAATCA
DNA 2: TGATTGCACAGCACAAAACGTGAATAAATGGTTGTATGCAGCTAGCTTCTTATATATAG

Biological target: T1, RH2, His-TF-RH2
Experiment: EMSA

Binder | binding result
B1 | binds
B2 | binds
